This series deals with T1, ADAAD wild type (GST cleaved) (UniProt Q9TTA5 229-940).
T1 sequence: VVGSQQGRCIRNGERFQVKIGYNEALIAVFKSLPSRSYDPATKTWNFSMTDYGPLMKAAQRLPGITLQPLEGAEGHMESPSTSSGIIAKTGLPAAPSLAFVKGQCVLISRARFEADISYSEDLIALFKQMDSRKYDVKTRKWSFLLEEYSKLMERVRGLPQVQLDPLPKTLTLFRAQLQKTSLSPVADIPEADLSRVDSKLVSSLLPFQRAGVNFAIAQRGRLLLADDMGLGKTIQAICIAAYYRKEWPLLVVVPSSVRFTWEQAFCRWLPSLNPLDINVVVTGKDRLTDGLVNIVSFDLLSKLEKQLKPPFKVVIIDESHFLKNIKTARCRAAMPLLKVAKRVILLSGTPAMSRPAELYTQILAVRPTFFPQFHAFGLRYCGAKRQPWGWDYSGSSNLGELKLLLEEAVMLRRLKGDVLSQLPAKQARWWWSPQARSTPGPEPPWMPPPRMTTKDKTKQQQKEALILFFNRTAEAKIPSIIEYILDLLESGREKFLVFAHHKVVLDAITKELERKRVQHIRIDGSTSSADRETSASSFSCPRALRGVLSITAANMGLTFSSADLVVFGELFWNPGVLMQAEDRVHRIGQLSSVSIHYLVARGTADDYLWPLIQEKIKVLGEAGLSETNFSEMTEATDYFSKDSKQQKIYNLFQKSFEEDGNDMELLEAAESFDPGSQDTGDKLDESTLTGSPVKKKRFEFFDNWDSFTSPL
In words: intrinsic tryptophan fluorescence quenching; Fluorescence at 25 C (Cary-Varian spectrofluorimeter); buffer, salt and pH not given (as in ref 13). The note with it: protein: recombinant; tags: none (GST removed with PreScission); hairpin.

Turning to GCGCAATTGCGCTCGACGATTTTTTAGCGCAATTGCGC (structured_DNA) [slDNA (stem-loop DNA)], the dissociation constant (Kd) worked out at 3.8 ± 1.1 nM.

The record behind these values is PMC3509132, “Global Epigenetic Changes Induced by SWI2/SNF2 Inhibitors Characterize Neomycin-Resistant Mammalian Cells” (PLoS ONE, 2012).
